Patent US20180057604A1 (Genentech, published 2018)
Like-named read-outs stand apart in the source and are kept apart here. Each block holds one binder with its values, some of them ahead of it.

Assays:
[1] = molecular target: T1, BACE1 in primary mouse cortical neurons (mouse, UniProt P56818 46-501); test: cell-based or functional assay
human BACE1 ECD [2] = test: cell-based or functional assay
murine BACE1 ECD [3] = test: cell-based or functional assay
[4] = molecular target: T2, BACE1 (HTRF long substrate and FRET short substrate assays of Example 9D); test: cell-based or functional assay
human BACE1 ECD [5] = molecular target: T3, human BACE1 ECD; test: Octet, pH 7.5, second run
T3 construct: analyte of the Octet assay (200 nM) and enzyme of the first short substrate assay; also called human BACE1 extracellular domain
T3 sequence (single chain, as listed by the source limits assumed): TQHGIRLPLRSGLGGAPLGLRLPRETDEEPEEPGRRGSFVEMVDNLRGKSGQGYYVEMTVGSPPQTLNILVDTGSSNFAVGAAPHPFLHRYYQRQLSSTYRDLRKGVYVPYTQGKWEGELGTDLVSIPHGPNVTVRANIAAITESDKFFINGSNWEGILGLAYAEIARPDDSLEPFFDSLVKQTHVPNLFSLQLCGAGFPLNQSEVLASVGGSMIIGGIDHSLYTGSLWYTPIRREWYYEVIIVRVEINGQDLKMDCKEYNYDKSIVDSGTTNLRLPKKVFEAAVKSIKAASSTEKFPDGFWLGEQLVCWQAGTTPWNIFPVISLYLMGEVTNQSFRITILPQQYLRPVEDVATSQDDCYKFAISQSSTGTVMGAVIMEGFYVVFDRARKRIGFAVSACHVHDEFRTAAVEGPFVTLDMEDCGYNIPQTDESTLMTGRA

murine BACE1 ECD [6] = molecular target: T4, murine BACE1 ECD; test: Octet, pH 7.5, second run
T4 construct: analyte of the Octet assay (200 nM) and enzyme of the first short substrate assay
T4 sequence (single chain, as listed by the source limits assumed): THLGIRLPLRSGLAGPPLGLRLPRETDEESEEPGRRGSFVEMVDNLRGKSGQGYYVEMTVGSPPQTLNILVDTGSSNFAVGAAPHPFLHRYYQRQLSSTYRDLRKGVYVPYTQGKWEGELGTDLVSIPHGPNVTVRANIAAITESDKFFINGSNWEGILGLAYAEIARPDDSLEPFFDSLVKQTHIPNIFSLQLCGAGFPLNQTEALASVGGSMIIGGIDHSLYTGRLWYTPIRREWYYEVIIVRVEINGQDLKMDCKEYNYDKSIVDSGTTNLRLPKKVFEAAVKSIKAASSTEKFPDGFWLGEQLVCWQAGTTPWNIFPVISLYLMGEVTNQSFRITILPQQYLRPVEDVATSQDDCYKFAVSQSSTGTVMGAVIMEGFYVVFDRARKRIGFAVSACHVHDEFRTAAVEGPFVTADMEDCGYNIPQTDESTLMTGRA

human BACE1 ECD [7] = molecular target: T3, human BACE1 ECD; test: Octet, pH 5.0
murine BACE1 ECD [8] = molecular target: T4, murine BACE1 ECD; test: Octet, pH 5.0
[9] = molecular target: T5, human BACE1 (R&D Systems) (human, UniProt P56817); test: SPR (Biacore)
T5 construct: recombinant, commercial (R&D Systems)
T5 sequence (P56817 22-457 limits assumed): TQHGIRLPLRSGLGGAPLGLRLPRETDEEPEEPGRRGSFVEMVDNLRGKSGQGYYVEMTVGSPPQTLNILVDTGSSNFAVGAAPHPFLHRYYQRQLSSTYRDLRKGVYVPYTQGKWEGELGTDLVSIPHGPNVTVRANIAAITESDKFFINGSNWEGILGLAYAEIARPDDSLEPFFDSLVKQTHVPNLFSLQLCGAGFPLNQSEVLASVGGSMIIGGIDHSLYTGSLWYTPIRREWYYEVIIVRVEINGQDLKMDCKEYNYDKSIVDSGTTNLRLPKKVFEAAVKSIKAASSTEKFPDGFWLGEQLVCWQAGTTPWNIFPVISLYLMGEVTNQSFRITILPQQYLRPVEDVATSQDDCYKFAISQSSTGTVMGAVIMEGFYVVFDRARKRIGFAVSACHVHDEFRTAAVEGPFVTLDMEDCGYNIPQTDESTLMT

[10] = molecular target: T5, human BACE1 (R&D Systems); test: SPR (Biacore), second run
human BACE1 ECD [11] = molecular target: T3, human BACE1 ECD; test: Octet, pH 7.5
murine BACE1 ECD [12] = molecular target: T4, murine BACE1 ECD; test: Octet, pH 7.5
human BACE1 ECD [13] = molecular target: T3, human BACE1 ECD; test: Octet, pH 5.0, second run
murine BACE1 ECD [14] = molecular target: T4, murine BACE1 ECD; test: Octet, pH 5.0, second run
human BACE1 ECD [15] = molecular target: T3, human BACE1 ECD; test: Octet, pH 7.5; remark: listed apart in the source
murine BACE1 ECD [16] = molecular target: T4, murine BACE1 ECD; test: Octet, pH 7.5; remark: listed apart in the source
human BACE1 ECD [17] = molecular target: T3, human BACE1 ECD; test: Octet, pH 5.0; remark: listed apart in the source
murine BACE1 ECD [18] = molecular target: T4, murine BACE1 ECD; test: Octet, pH 5.0; remark: listed apart in the source
[19] = molecular target: T5, human BACE1 (R&D Systems); test: SPR (Biacore); remark: listed apart in the source
[20] = molecular target: T1, BACE1 in primary mouse cortical neurons; test: cell-based or functional assay; remark: listed apart in the source
[21] = molecular target: T6, cyno TfR extracellular domain (analogous construct to human TfR ecd) (cynomolgus monkey, UniProt Q5RDH6 87-760 (Pongo abelii entry)); test: SPR, KD on cyno TfR over KD on human TfR
T6 construct: also called cynoTfR ecd
T6 chain: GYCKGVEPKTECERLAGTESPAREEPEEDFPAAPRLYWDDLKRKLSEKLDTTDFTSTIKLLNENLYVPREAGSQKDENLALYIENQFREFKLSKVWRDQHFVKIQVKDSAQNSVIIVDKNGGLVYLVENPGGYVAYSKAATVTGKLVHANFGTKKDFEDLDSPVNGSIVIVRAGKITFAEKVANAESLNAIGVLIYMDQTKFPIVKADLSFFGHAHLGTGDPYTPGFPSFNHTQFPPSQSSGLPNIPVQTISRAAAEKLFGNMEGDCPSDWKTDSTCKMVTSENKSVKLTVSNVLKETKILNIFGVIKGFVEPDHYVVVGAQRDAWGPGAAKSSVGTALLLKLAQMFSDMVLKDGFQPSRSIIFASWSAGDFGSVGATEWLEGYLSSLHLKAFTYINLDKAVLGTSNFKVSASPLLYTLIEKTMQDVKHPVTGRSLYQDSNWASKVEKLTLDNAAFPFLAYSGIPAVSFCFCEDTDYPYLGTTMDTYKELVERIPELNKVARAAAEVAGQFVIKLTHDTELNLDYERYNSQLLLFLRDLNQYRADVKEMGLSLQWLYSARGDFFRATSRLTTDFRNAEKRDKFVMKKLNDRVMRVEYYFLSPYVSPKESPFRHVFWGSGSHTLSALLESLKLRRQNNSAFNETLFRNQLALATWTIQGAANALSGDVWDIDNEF

[22] = molecular target: T6, cyno TfR extracellular domain …; test: SPR, TfR captured by anti-His, Fab injected;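 also: single cycle kinetics with a Fab dilution series, fitted by a one-to-one Langmuir model or a steady state model, KD taken as koff over kon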
[23] = molecular target: T7, human TfR extracellular domain with N-terminal His tag (human, UniProt P02786 89-760); test: SPR, TfR captured by anti-His, Fab injected;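 also: single cycle kinetics with a Fab dilution series, fitted by a one-to-one Langmuir model or a steady state model, KD taken as koff over kon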
T7 construct: Biotinylated in some assays; also called huTfR; HuTfR

[24] = molecular target: T6, cyno TfR extracellular domain …; test: SPR, Fab
[25] = molecular target: T7, human TfR extracellular domain with …; test: SPR, Fab
[26] = molecular target: T6, cyno TfR extracellular domain …; test: SPR SCK 1:1 fit, IgG
[27] = molecular target: T7, human TfR extracellular domain with …; test: SPR SCK 1:1 fit, IgG
[28] = molecular target: T6, cyno TfR extracellular domain …; test: ELISA, IgG;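 also: ELISA of IgG-containing supernatants tested in 1:5 serial dilutions for 1 h, bound antibody read out with HRP anti-kappa antibody and TMB substrate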
[29] = molecular target: T7, human TfR extracellular domain with …; test: ELISA, IgG;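 also: ELISA of IgG-containing supernatants tested in 1:5 serial dilutions for 1 h, bound antibody read out with HRP anti-kappa antibody and TMB substrate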
[30] = molecular target: T6, cyno TfR extracellular domain …; test: SPR steady state, IgG
[31] = molecular target: T7, human TfR extracellular domain with …; test: SPR steady state, IgG
[32] = molecular target: T2, BACE1 (HTRF long substrate and FRET …); test: cell-based or functional assay; remark: listed apart in the source
human BACE1 ECD [33] = molecular target: T3, human BACE1 ECD; test: Octet, pH 7.5; remark: listed apart in the source
murine BACE1 ECD [34] = molecular target: T4, murine BACE1 ECD; test: Octet, pH 7.5; remark: listed apart in the source
human BACE1 ECD [35] = molecular target: T3, human BACE1 ECD; test: Octet, pH 5.0; remark: listed apart in the source
murine BACE1 ECD [36] = molecular target: T4, murine BACE1 ECD; test: Octet, pH 5.0; remark: listed apart in the source
[37] = molecular target: T5, human BACE1 (R&D Systems); test: SPR (Biacore); remark: listed apart in the source

T1 sequence (P56818 46-501): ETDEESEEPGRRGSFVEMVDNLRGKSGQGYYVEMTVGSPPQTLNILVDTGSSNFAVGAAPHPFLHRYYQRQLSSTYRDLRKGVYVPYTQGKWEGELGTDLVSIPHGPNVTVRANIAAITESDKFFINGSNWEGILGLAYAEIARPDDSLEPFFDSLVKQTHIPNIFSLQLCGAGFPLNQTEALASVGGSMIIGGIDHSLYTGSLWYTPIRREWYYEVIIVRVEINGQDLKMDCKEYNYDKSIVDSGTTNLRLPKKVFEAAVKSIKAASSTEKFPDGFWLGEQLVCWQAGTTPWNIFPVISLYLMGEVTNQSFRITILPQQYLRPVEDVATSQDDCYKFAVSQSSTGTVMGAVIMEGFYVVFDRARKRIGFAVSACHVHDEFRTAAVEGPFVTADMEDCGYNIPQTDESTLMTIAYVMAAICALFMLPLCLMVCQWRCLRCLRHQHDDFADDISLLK

IC50, Abeta x-40 in mouse cortical neurons [1]: 2.7 nM
IC50, Abeta x-40 in mouse cortical neurons (5896*, second run) [1]: 5.72 nM
maximal % inhibition of Abeta x-40 [1]: 65%
% inhibition of BACE1 activity, short FRET substrate (human BACE1 ECD [2]): -4%
% inhibition of BACE1 activity, short FRET substrate (murine BACE1 ECD [3]): -3%
EC50, FRET short substrate [4]: 3.35 nM
EC50, HTRF long substrate [4]: 3.46 nM
Kd (human BACE1 ECD [5]): 0.71 nM
Kd (murine BACE1 ECD [6]): 0.8 nM
Kd (human BACE1 ECD [7]): 3 nM
Kd (murine BACE1 ECD [8]): 3.1 nM
Kd [9]: 3.4 nM
Kd [10]: 5.18 nM
Kd (human BACE1 ECD [11]): 1.9 nM
Kd (murine BACE1 ECD [12]): 2.9 nM
Kd (human BACE1 ECD [13]): 1.1 nM
Kd (murine BACE1 ECD [14]): 1 nM
B1: 5896 (antibody, V domains shown)
VH: QLQLQESGPGLVKPSETLSLTCTVSGGSISSSSYYWGWIRQPPGKGLEWIGSIYRSGSTYYNPSLKSRVTISVDTSKNQFSLKLSSVTAADTAVYYCARVGHGISYFDLWGRGTLVTVSS
VL: EIVLTQSPATLSLSPGERATLSCRASQSVSSYLAWYQQKPGQAPRLLIYDASNRATGIPARFSGSGSGTDFTLTISSLEPEDFAVYYCQQSLTWPPRTFGGGTKVEIK
notes: anti-BACE1 IgG

Kd (human BACE1 ECD [15]): 0.46 nM
Kd (murine BACE1 ECD [16]): 0.47 nM
Kd (human BACE1 ECD [17]): 0.44 nM
Kd (murine BACE1 ECD [18]): 0.5 nM
Kd [19]: 1.63 nM
IC50, Abeta x-40 in mouse cortical neurons [20]: 0.17 nM
maximal % inhibition of Abeta x-40 [20]: 71%
B2: 6310 (antibody, V domains shown)
VH: QLQLQESGPGLVKPSETLSLTCTVSGGSISWSSYYWSWIRQPPGKGLEWIGSIYRSGRTYYNPSLKSRVTISVDTSKNQFSLKLSSVTAADTAVYYCARVGHGINYFDLWGRGTLVTVSS
VL: EIVLTQSPATLSLSPGERATLSCRASQSVSSYLAWYQQKPGQAPRLLIYDASNRATGIPARFSGSGSGTDFTLTISSLEPEDFAVYYCQQSVTWPPRTFGGGTKVEIK
notes: anti-BACE1 IgG

Cy/hu ratio [21]: 11
koff [22]: 0.00162 s⁻¹
kon [22]: 378000 M⁻¹ s⁻¹
koff [23]: 0.000317 s⁻¹
kon [23]: 910000 M⁻¹ s⁻¹
Kd [24]: 4.3 nM
Kd [25]: 0.4 nM
B3: hu7A4.v15.Fab (Fab, V domains shown)
VH: EVQLVQSGAEVKKPGASVKVSCKGSGYTFTDYAMHWVRQAPGQGLEWMGGISTYFGRTNYNQKFKGRVTMTVDTSISTAYMELSRLRSDDTAVYYCARGLSGNYVMDYWGQGTTVTVSS
VL: DIVMTQSPDSLAVSLGERATINCRASESVDSYGNSFMHWYQQKPGQPPKLLIYRASNLESGVPDRFSGSGSRTDFTLTISSLQAEDVAVYYCQQSNEAPPTFGQGTKLEIK
notes: Fab

Kd [26]: 570 nM
Kd [27]: 16 nM
EC50 [28]: 0.181 µg/mL
EC50 [29]: 0.0093 µg/mL
Kd [30]: 329 nM
Kd [31]: 41 nM
B4: Q90A (antibody, V domains shown)
VH: EVQLVQSGAEVKKPGASVKVSCKGSGYTFTDYAMHWVRQAPGQGLEWMGGISTYFGRTNYNQKFKGRVTMTVDTSISTAYMELSRLRSDDTAVYYCARGLSGNYVMDYWGQGTTVTVSS
VL: DIVMTQSPDSLAVSLGERATINCRASESVDSYGNSFMHWYQQKPGQPPKLLIYRASNLESGVPDRFSGSGSRTDFTLTISSLQAEDVAVYYCQASNEAPPTFGQGTKLEIK
notes: also called 7A4.v15 Q90A (CDR-L3) IgG

Kd [26]: 22 nM
Kd [27]: 11 nM
EC50 [28]: 0.0822 µg/mL
EC50 [29]: 0.017 µg/mL
Kd [30]: 77 nM
Kd [31]: 19 nM
B5: N99A (antibody, V domains shown)
VH: EVQLVQSGAEVKKPGASVKVSCKGSGYTFTDYAMHWVRQAPGQGLEWMGGISTYFGRTNYNQKFKGRVTMTVDTSISTAYMELSRLRSDDTAVYYCARGLSGAYVMDYWGQGTTVTVSS
VL: DIVMTQSPDSLAVSLGERATINCRASESVDSYGNSFMHWYQQKPGQPPKLLIYRASNLESGVPDRFSGSGSRTDFTLTISSLQAEDVAVYYCQQSNEAPPTFGQGTKLEIK
notes: also called 7A4.v15 N99A (CDR-H3) IgG; copies: 2 + 2

IC50, Abeta x-40 in mouse cortical neurons [1]: 1.74 nM
IC50, Abeta x-40 in mouse cortical neurons (5887*, second run) [1]: 2.53 nM
maximal % inhibition of Abeta x-40 [1]: 75%
% inhibition of BACE1 activity, short FRET substrate (human BACE1 ECD [2]): -102%
% inhibition of BACE1 activity, short FRET substrate (murine BACE1 ECD [3]): -230%
EC50, FRET short substrate [32]: 0.482 nM
EC50, HTRF long substrate [32]: 5.5 nM
Kd (human BACE1 ECD [33]): 1.1 nM
Kd (murine BACE1 ECD [34]): 1.4 nM
Kd (human BACE1 ECD [35]): 2.2 nM
Kd (murine BACE1 ECD [36]): 2.3 nM
Kd [37]: 3.58 nM
Kd (human BACE1 ECD [5]): 0.45 nM
Kd (murine BACE1 ECD [6]): 0.54 nM
Kd [10]: 7.08 nM
Kd (human BACE1 ECD [13]): 1.4 nM
Kd (murine BACE1 ECD [14]): 1.8 nM
B6: 5887 (antibody, V domains shown)
VH: QVQLVQSGAEVKKPGSSVKVSCKASGGTFRGYAISWVRQAPGQGLEWMGNIIPGFGTANYAQKFQGRVTITADESTSTAYMELSSLRSEDTAVYYCARSGGTKYGMLDVWGQGTMVTVSS
VL: EIVMTQSPATLSVSPGERATLSCRASQSVSSNLAWYQQKPGQAPRLLIYGASTRATGIPARFSGSGSGTEFTLTISSLQSEDFAVYYCQQLILWPPRTFGGGTKVEIK
notes: anti-BACE1 IgG

Kd (human BACE1 ECD [15]): < 0.32 nM
Kd (murine BACE1 ECD [16]): < 0.35 nM
Kd (human BACE1 ECD [17]): < 0.26 nM
Kd (murine BACE1 ECD [18]): < 0.32 nM
Kd [19]: 3.09 nM
IC50, Abeta x-40 in mouse cortical neurons [20]: 4.1 nM
maximal % inhibition of Abeta x-40 [20]: 76%
B7: 6303 (antibody, V domains shown)
VH: QVQLVQSGAEVKKPGSSVKVSCKASGGTLSGYAISWVRQAPGQGLEWMGNIIPGFGTANYAQKSQGRVTITADESTSTAYMELSSLRSEDTAVYYCARSGGTRYGMLDVWGQGTMVTVSS
VL: EIVMTQSPATLSVSPGERATLSCRASQSVSSNLAWYQQKPGQAPRLLIFGASTRATGIPARFSGSGSGTEFTLTISSLQSEDFAVYYCQQLLTWPPRTFGGGTKVEIK
notes: anti-BACE1 IgG
